Literature values, collected in article PMC8162889.

Biological target: EphA2 ECD (Homo sapiens) (UniProt P29317)
Assay: MST

UniProt P29317, sequence (P29317 24-537): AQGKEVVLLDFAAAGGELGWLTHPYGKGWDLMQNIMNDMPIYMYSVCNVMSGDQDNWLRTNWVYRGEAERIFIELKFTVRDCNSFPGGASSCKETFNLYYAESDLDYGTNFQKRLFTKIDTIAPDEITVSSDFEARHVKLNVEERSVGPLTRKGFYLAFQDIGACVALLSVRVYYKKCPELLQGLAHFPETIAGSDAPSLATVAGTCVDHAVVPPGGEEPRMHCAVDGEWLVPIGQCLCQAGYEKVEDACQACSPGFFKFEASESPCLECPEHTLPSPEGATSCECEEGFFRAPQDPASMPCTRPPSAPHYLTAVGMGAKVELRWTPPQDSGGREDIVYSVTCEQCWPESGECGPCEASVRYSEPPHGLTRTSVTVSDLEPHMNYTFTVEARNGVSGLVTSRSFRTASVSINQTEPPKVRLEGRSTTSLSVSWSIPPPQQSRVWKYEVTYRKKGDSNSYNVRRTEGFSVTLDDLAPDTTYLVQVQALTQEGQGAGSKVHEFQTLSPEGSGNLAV

In the case of Progranulin (from UniProt P28799), the Kd is listed as 1.2 nM.
